Test results from patent US20240377408A1.

Experiments:
[1] = target: biotinylated peptide M64-P1-P2-ΔK-(PEG9)(PEG9)-K(Biotin) with P1 = V; experiment: BLI, biotinylated peptide on streptavidin tips, binder in solution
[2] = target: biotinylated peptide M64-P1-P2-ΔK-(PEG9)(PEG9)-K(Biotin) with P1 = T; experiment: as above

Kd [1] | koff [1] | kon [1] | Kd [2] | koff [2] | kon [2] | Binder
< 350 nM | – | – | – | – | – | S279_0004 (designed binder, not shown: small tags and cut ends; large carriers) EWGYASHNGPDHWHELFPNAKGENQSPIELHTKDIRHDPSLQPWSVSYDGGSAKTILNNGKTLGVVFDDTYDRSMLRGGPLPGPYRLREFHLHWGSSDDHGSEHTVDGVKYAAELHLLHWNPKYNTFKEALKQRDGLAVIGIFLKIGHENGEFQIFLDALDKIKTKGKEAPFTKFDPSSLFPASRDYWTYQGSMTIPPLMEAVVWLLLKEPMTVSSDQMAKLRSLLSSAENEPPVPLVSNWRPPQPINNRVVRASFK
20 nM | 0.000473 s⁻¹ | 23700 M⁻¹ s⁻¹ | 488 nM | 0.0111 s⁻¹ | 23300 M⁻¹ s⁻¹ | Synthetic binder, S279_0004 (designed binder) EWGYASHNGPDHWHELFPNAKGENQSPIELHTKDIRHDPSLQPWSVSYDGGSAKTILNNGKTLGVVFDDTYDRSMLRGGPLPGPYRLREFHLHWGSSDDHGSEHTVDGVKYAAELHLLHWNPKYNTFKEALKQRDGLAVIGIFLKIGHENGEFQIFLDALDKIKTKGKEAPFTKFDPSSLFPASRDYWTYQGSMTIPPLMEAVVWLLLKEPMTVSSDQMAKLRSLLSSAENEPPVPLVSNWRPPQPINNRVVRASFK
